{"source": "patent US20190248916A1", "about": "(Hoffmann-La Roche, published 2019)", "binders": {"B1": {"name": "ESK1-TCB (bispecific antibody, V domains shown)", "VH 1": "QMQLVQSGAEVKEPGESLRISCKGSGYSFTNFWISWVRQMPGKGLEWMGRVDPGYSYSTYSPSFQGHVTISADKSTSTAYLQWNSLKASDTAMYYCARVQYSGYYDWFDPWGQGTLVTVSS", "VL 1": "not shown", "VH 2": "not shown", "VL 2": "QAVVTQEPSLTVSPGGTVTLTCGSSTGAVTTSNYANWVQEKPGQAFRGLIGGTNKRAPGTPARFSGSLLGGKAALTLSGAQPEDEAEYYCALWYSNLWVFGGGTKLTVL"}, "B2": {"name": "CD3 binder CH2527 (antibody, V domains shown)", "VH": "not shown", "VL": "QAVVTQEPSLTVSPGGTVTLTCGSSTGAVTTSNYANWVQEKPGQAFRGLIGGTNKRAPGTPARFSGSLLGGKAALTLSGAQPEDEAEYYCALWYSNLWVFGGGTKLTVL"}, "B3": {"name": "11D06-huIgG1 (antibody, V domains shown)", "VH": "QVQLVQSGAEVKKPGSSVKVSCKASGGTFSSYAISWVRQAPGQGLEWMGGIIPIFGTANYAQKFQGRVTITADKSTSTAYMELSSLRSEDTAVYYCARSIELWWGGFDYWGQGTTVTVSS", "VL": "DIQMTQSPSTLSASVGDRVTITCRASQSISSWLAWYQQKPGKAPKLLIYDASSLESGVPSRFSGSGSGTEFTLTIGSLQPDDFATYYCQQYEDYTTFGQGTKVEIK", "notes": "also called 11D06-IgG; 11D06 IgG"}, "B4": {"name": "11B09-IgG (antibody, V domains shown)", "VH": "QVQLVQSGAEVKKPGSSVKVSCKASGGTFSSYAISWVRQAPGQGLEWMGGIIPIFGTANYAQKFQGRVTITADKSTSTAYMELSSLRSEDTAVYYCARVPGRWYGAMDYWGQGTTVTVSS", "VL": "DIQMTQSPSTLSASVGDRVTITCRASQSISSWLAWYQQKPGKAPKLLIYDASSLESGVPSRFSGSGSGTEFTLTISSLQPDDFATYYCQQEDDYPLTFGQGTKVEIK"}, "B5": {"name": "CD3 binder V9 (antibody, V domains shown)", "VH": "EVQLVESGGGLVQPGGSLRLSCAASGYSFTGYTMNWVRQAPGKGLEWVALINPYKGVSTYNQKFKDRFTISVDKSKNTAYLQMNSLRAEDTAVYYCARSGYYGDSDWYFDVWGQGTLVTVSS", "VL": "DIQMTQSPSSLSASVGDRVTITCRASQDIRNYLNWYQQKPGKAPKLLIYYTSRLESGVPSRFSGSGSGTDYTLTISSLQPEDFATYYCQQGNTLPWTFGQGTKVEIK"}, "B6": {"name": "5E11-IgG (antibody, V domains shown)", "VH": "QVQLVQSGAEVKKPGSSVKVSCKASGGTFSSYAISWVRQAPGQGLEWMGGIIPIFGTANYAQKFQGRVTITADKSTSTAYMELSSLRSEDTAVYYCARSSYDLYSFDYWGQGTTVTVSS", "VL": "DIQMTQSPSTLSASVGDRVTITCRASQSISSWLAWYQQKPGKAPKLLIYDASSLESGVPSRFSGSGSGTEFTLTISSLQPDDFATYYCQQYSFPPMITFGQGTKVEIK"}, "B7": {"name": "5C01-IgG (antibody, V domains shown)", "VH": "not shown", "VL": "DIQMTQSPSTLSASVGDRVTITCRASQSISSWLAWYQQKPGKAPKLLIYDASSLESGVPSRFSGSGSGTEFTLTISSLQPDDFATYYCQQYSIWFPYTFGQGTKVEIK"}, "B8": {"name": "33H09-huIgG1 (antibody, V domains shown)", "VH": "QVQLVQSGAEVKKPGSSVKVSCKASGGTFSSYAISWVRQAPGQGLEWMGGIIPIFGTANYAQKFQGRVTITADKSTSTAYMELSSLRSEDTAVYYCARGSYDLFSLDYWGQGTTVTVSS", "VL": "DIQMTQSPSTLSASVGDRVTITCRASQSISSWLAWYQQKPGKAPKLLIYDASSLESGVPSRFSGSGSGTEFTLTISSLQPDDFATYYCQQYYDGITFGQGTKVEIK", "notes": "also called 33H09-IgG"}, "B9": {"name": "13B04-IgG (antibody, V domains shown)", "VH": "EVQLLESGPGLVKPSETLSLTCTVSGGSISSYYWSWIRQPPGKGLEWIGYIYYSGSTNYNPSLKSRVTISVDTSKNQFSLKLSSVTAADTAVYYCARVSYNGLDYWGQGTLVTVSS", "VL": "DIQMTQSPSTLSASVGDRVTITCRASQSISSWLAWYQQKPGKAPKLLIYDASSLESGVPSRFSGSGSGTEFTLTISSLQPDDFATYYCQQYNMWNPVTFGQGTKVEIK"}, "B10": {"name": "11G06-huIgG1 (antibody, V domains shown)", "VH": "QVQLVQSGAEVKKPGSSVKVSCKASGGTFSSYAISWVRQAPGQGLEWMGGIIPIFGTANYAQKFQGRVTITADKSTSTAYMELSSLRSEDTAVYYCARTGPYYGAFDYWGQGTTVTVSS", "VL": "DIQMTQSPSTLSASVGDRVTITCRASQSISSWLAWYQQKPGKAPKLLIYDASSLESGVPSRFSGSGSGTEFTLTISSLQPDDFATYYCQQGFRGYTFGQGTKVEIK", "notes": "also called 11G06-IgG"}}, "key": {"[1]": {"target": "HLA-A2 with MED13L peptide … on peptide-pulsed T2 cells (human)", "test": "flow cytometry on peptide-pulsed T2 cells, anti-human Fc secondary, MFI", "excerpt": "(§1) We first measured the binding specificity on peptide-pulsed T2 cells by the IgG binders generated from phage display by flow cytometry. […] Cells were acquired on FACS LSR II (BD), and data are presented as mean fluorescence intensity (MFI) of PE in Graphpad Prism."}, "[2]": {"target": "T1, HLA-A2/WT1RMF complex on cells (human)", "T1 construct": "also called RMF peptide-pulsed T2 cells; SKM-1 cells", "test": "flow cytometry on peptide-pulsed T2 cells, anti-human Fc secondary, MFI", "excerpt": "as §1"}, "CD3": {"target": "T2, CD3 (Homo sapiens (Human), UniProt P07766 23-126)", "T2 construct": "also called human CD3", "test": "method not stated"}, "[3]": {"target": "T3, HLA-A2/WT1RMF complex (soluble) (human)", "T3 construct": "also called HLA-A02/WT1RMF pMHC; HLA-A02/RMF pMHC", "test": "SPR, antibody captured (anti-human Fc), pMHC in solution; affinity", "description": "The bispecific constructs were captured for 30 s at 5 nM. […] The dissociation phase was monitored for 120 s and triggered by switching from the sample solution to HBS-EP. The chip surface was regenerated after every cycle using an injection of 3M MgCl₂ at 10 μl/min for 30 sec. Bulk refractive index differences were corrected for by subtracting the response obtained on the reference flow cell which contains the anti-human Fc antibody, but without bispecific construct captured on it. The affinity constants were derived from the kinetic rate constants by fitting to a 1:1 Langmuir binding using the BIAeval software (GE Healthcare)."}, "[4]": {"target": "T4, HLA-A2/WT1VLD complex (soluble) (human)", "T4 construct": "also called HLA-A02/WT1VLD pMHC; HLA-A02/VLD pMHC", "test": "SPR, pMHC captured by anti-His", "description": "(§2) For determination of avidity and specificity of the HLA-A2/WT1×CD3 bispecific antibodies to HLA-A2/WT1RMF, SPR experiments were again performed at 25° C. on a Biacore T200 with HBS-EP as running buffer (0.01 M HEPES pH 7.4, 0.15 M NaCl, 0.005% Surfactant P20 (GE Healthcare)). […] The HLA-A2/WT1RMF or HLA-A2/WT1VLD was captured for 30 sec and 10 μl/min at 5 or 10 nM (for the bispecific antibody or IgG measurement, respectively). […] The dissociation phase was monitored for 240 sec and triggered by switching from the sample solution to HBS-EP. The chip surface was regenerated after every cycle using an injection of 10 mM glycine pH 2 for 60 sec. Bulk refractive index differences were corrected for by subtracting the response obtained on the reference flow cell (which contains the anti-His antibody, but without HLA-A2/WT1RMF captured on it). Even though it is a 2:1 interaction (analyte is bivalent) the affinity constants were derived from the kinetic rate constants by fitting to a 1:1 Langmuir binding using the BIAeval software (GE Healthcare)."}, "[5]": {"target": "HLA-A2 on unpulsed T2 cells (human)", "test": "flow cytometry on unpulsed T2 cells, anti-human IgG-Fc PE secondary, MFI"}, "[6]": {"target": "T1, HLA-A2/WT1RMF complex on cells", "test": "flow cytometry on peptide-pulsed T2 cells, anti-human IgG-Fc PE secondary, MFI", "excerpt": "as §1"}, "[7]": {"target": "T5, HLA-A2/WT1VLD complex on VLD peptide-pulsed T2 cells (human)", "test": "flow cytometry on peptide-pulsed T2 cells, anti-human IgG-Fc PE secondary, MFI", "excerpt": "as §1"}, "[8]": {"target": "T3, HLA-A2/WT1RMF complex (soluble)", "test": "SPR, pMHC captured (anti-His), bivalent antibody in solution; avidity, average", "description": "as §2"}, "[9]": {"target": "T3, HLA-A2/WT1RMF complex (soluble)", "test": "SPR, pMHC captured (anti-His), bivalent antibody in solution; apparent KD (avidity), average", "description": "as §2"}, "[10]": {"target": "T1, HLA-A2/WT1RMF complex on cells", "test": "flow cytometry on peptide-pulsed T2 cells, anti-human IgG-Fc PE secondary, MFI", "remark": "listed apart in the source", "excerpt": "as §1"}, "[11]": {"target": "T5, HLA-A2/WT1VLD complex on VLD …", "test": "flow cytometry on peptide-pulsed T2 cells, anti-human IgG-Fc PE secondary, MFI", "remark": "listed apart in the source", "excerpt": "as §1"}, "[12]": {"target": "HLA-A2 on unpulsed T2 cells (human)", "test": "flow cytometry on unpulsed T2 cells, anti-human IgG-Fc PE secondary, MFI", "remark": "listed apart in the source", "excerpt": "(§3) Cells were acquired on FACS LSR II (BD), and data are presented as mean fluorescence intensity (MFI) of PE in Graphpad Prism."}, "[13]": {"target": "T1, HLA-A2/WT1RMF complex on cells", "test": "flow cytometry on peptide-pulsed T2 cells, anti-human IgG-Fc PE secondary, MFI", "remark": "listed apart in the source", "excerpt": "as §1"}, "[14]": {"target": "T5, HLA-A2/WT1VLD complex on VLD …", "test": "flow cytometry on peptide-pulsed T2 cells, anti-human IgG-Fc PE secondary, MFI", "remark": "listed apart in the source", "excerpt": "as §1"}, "[15]": {"target": "T1, HLA-A2/WT1RMF complex on cells", "test": "flow cytometry on peptide-pulsed T2 cells, anti-human IgG-Fc PE secondary, MFI", "remark": "listed apart in the source", "excerpt": "as §1"}, "[16]": {"target": "T5, HLA-A2/WT1VLD complex on VLD …", "test": "flow cytometry on peptide-pulsed T2 cells, anti-human IgG-Fc PE secondary, MFI", "remark": "listed apart in the source", "excerpt": "as §1"}, "[17]": {"target": "HLA-A2 on unpulsed T2 cells (human)", "test": "flow cytometry on unpulsed T2 cells, anti-human IgG-Fc PE secondary, MFI", "remark": "listed apart in the source", "excerpt": "as §3"}, "[18]": {"target": "T1, HLA-A2/WT1RMF complex on cells", "test": "flow cytometry on peptide-pulsed T2 cells, anti-human IgG-Fc PE secondary, MFI", "remark": "listed apart in the source", "excerpt": "as §1"}, "[19]": {"target": "T5, HLA-A2/WT1VLD complex on VLD …", "test": "flow cytometry on peptide-pulsed T2 cells, anti-human IgG-Fc PE secondary, MFI", "remark": "listed apart in the source", "excerpt": "as §1"}, "[20]": {"target": "T1, HLA-A2/WT1RMF complex on cells", "test": "flow cytometry on peptide-pulsed T2 cells, anti-human IgG-Fc PE secondary, MFI", "remark": "listed apart in the source", "excerpt": "as §1"}, "[21]": {"target": "T5, HLA-A2/WT1VLD complex on VLD …", "test": "flow cytometry on peptide-pulsed T2 cells, anti-human IgG-Fc PE secondary, MFI", "remark": "listed apart in the source", "excerpt": "as §1"}, "[22]": {"target": "T5, HLA-A2/WT1VLD complex on VLD …", "test": "flow cytometry on peptide-pulsed T2 cells, anti-human IgG-Fc PE secondary, MFI", "remark": "listed apart in the source", "excerpt": "as §1"}}, "note": "“And” between values parts separate entries of the source, which are not always exact repeats. Identical values can stand only once. Like-named read-outs stand apart in the source and are kept apart here.", "data": [{"binder": "B1", "values": [{"measurement": "EC50 (read off the curve)", "setting": "[1]", "value": "~0.3", "unit": "µg/mL"}, {"measurement": "EC50 (read off the curve)", "setting": "[2]", "value": "~1", "unit": "µg/mL"}]}, {"binder": "B2", "values": [{"measurement": "Kd", "setting": "CD3", "value": "85 to 130", "unit": "nM"}]}, {"binder": "B3", "values": [{"measurement": "Kd", "setting": "[3]", "value": "35 nM and 34 nM"}, {"measurement": "koff", "setting": "[3]", "value": "0.0378 s⁻¹ and 0.0357 s⁻¹"}, {"measurement": "kon", "setting": "[3]", "value": "1.08e+06 M⁻¹ s⁻¹ and 1.04e+06 M⁻¹ s⁻¹"}, {"measurement": "binding result", "setting": "[4]", "value": "no binding (tested: 1.23 to 100 nM)"}, {"measurement": "binding result", "setting": "[5]", "value": "no binding (tested: 10 µg/ml)"}, {"measurement": "EC50 (read off the curve)", "setting": "[6]", "value": "~0.06", "unit": "µg/mL"}, {"measurement": "binding result", "setting": "[7]", "value": "no binding (tested: 10 µg/ml)"}, {"measurement": "koff", "setting": "[8]", "value": 0.00181, "unit": "s⁻¹"}, {"measurement": "kon", "setting": "[8]", "value": "2.97e+06", "unit": "M⁻¹ s⁻¹"}, {"measurement": "Kd", "setting": "[9]", "value": 0.61, "unit": "nM"}]}, {"binder": "B4", "values": [{"measurement": "binding result", "setting": "[10]", "value": "no binding (tested: 1 µg/ml)"}, {"measurement": "EC50 (read off the curve)", "setting": "[11]", "value": "~0.02", "unit": "µg/mL"}]}, {"binder": "B5", "values": [{"measurement": "Kd", "setting": "CD3", "value": "35 to 50", "unit": "nM"}]}, {"binder": "B6", "values": [{"measurement": "binding result", "setting": "[12]", "value": "no binding (tested: 10 µg/ml)"}, {"measurement": "EC50 (read off the curve)", "setting": "[13]", "value": "~0.7", "unit": "µg/mL"}, {"measurement": "binding result", "setting": "[14]", "value": "no binding (tested: 10 µg/ml)"}]}, {"binder": "B7", "values": [{"measurement": "binding result", "setting": "[15]", "value": "no binding (tested: 1 µg/ml)"}, {"measurement": "EC50 (read off the curve)", "setting": "[16]", "value": "~0.02", "unit": "µg/mL"}]}, {"binder": "B8", "values": [{"measurement": "binding result", "setting": "[17]", "value": "no binding (tested: 1 µg/ml)"}, {"measurement": "Kd", "setting": "[3]", "value": "70 nM and 69 nM"}, {"measurement": "koff", "setting": "[3]", "value": "0.116 s⁻¹ and 0.124 s⁻¹"}, {"measurement": "kon", "setting": "[3]", "value": "1.67e+06 M⁻¹ s⁻¹ and 1.8e+06 M⁻¹ s⁻¹"}, {"measurement": "binding result", "setting": "[4]", "value": "no binding (tested: 1.23 to 100 nM)"}, {"measurement": "EC50 (read off the curve)", "setting": "[18]", "value": "~0.06", "unit": "µg/mL"}, {"measurement": "binding result", "setting": "[19]", "value": "no binding (tested: 1 µg/ml)"}, {"measurement": "koff", "setting": "[8]", "value": 0.00357, "unit": "s⁻¹"}, {"measurement": "kon", "setting": "[8]", "value": "4.74e+06", "unit": "M⁻¹ s⁻¹"}, {"measurement": "Kd", "setting": "[9]", "value": 0.75, "unit": "nM"}]}, {"binder": "B9", "values": [{"measurement": "binding result", "setting": "[20]", "value": "no binding (tested: 1 µg/ml)"}, {"measurement": "EC50 (read off the curve)", "setting": "[21]", "value": "~0.06", "unit": "µg/mL"}]}, {"binder": "B10", "values": [{"measurement": "binding result", "setting": "[22]", "value": "binds"}]}]}
